T1: soluble tissue factor (sTF), P13726
T1 chain: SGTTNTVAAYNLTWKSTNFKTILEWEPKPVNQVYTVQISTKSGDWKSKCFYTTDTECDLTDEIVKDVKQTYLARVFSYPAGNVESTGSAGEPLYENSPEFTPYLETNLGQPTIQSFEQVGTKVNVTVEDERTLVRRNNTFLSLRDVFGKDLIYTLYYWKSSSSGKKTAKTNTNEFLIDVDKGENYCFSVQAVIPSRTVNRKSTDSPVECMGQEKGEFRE

B1: FVIIa-AE288 (protein)
chain: AVFVTQEEAHGVLHRRRRANAFLEELRPGSLERECKEEQCSFEEAREIFKDAERTKLFWISYSDGDQCASSPCQNGGSCKDQLQSYICFCLPAFEGRNCETHKDDQLICVNENGGCEQYCSDHTGTKRSCRCHEGYSLLADGVSCTPTVEYPCGKIPILEKRNASKPQGRIVGGKVCPKGECPWQVLLLVNGAQLCGGTLINTIWVVSAAHCFDKIKNWRNLIAVLGEHDLSEHDGDEQSRRVAQVIIPSTYVPGTTNHDIALLRLHQPVVLTDHVVPLCLPERTFSERTLAFVRFSLVSGWGQLLDRGATALELMVLNVPRLMTQDCLQQSRKVGDSPNITEYMFCAGYSDGSKDSCKGDSGGPHATHYRGTWYLTGIVSWGQGCATVGHFGVYTRVSQYIEWLQKLMRSEPRPGVLLRAPFPGSPGTSESATPESGPGSEPATSGSETPGTSESATPESGPGSEPATSGSETPGTSESATPESGPGTSTEPSEGSAPGSPAGSPTSTEEGTSESATPESGPGSEPATSGSETPGTSESATPESGPGSPAGSPTSTEEGSPAGSPTSTEEGTSTEPSEGSAPGTSESATPESGPGTSESATPESGPGTSESATPESGPGSEPATSGSETPGSEPATSGSETPGSPAGSPTSTEEGTSTEPSEGSAPGTSTEPSEGSAPGSEPATSGSETPGTSESATPESGPGTSTEPSEGSAPGSSS

What was measured:
[1] = test system: FIX-KLTRAET-XTEN_AE864
[2] = test system: FIX-DFTRVVG-XTEN_AE864
[3] = test system: FIX-/FXI/-XTEN_AE864
[4] = target: T1, soluble tissue factor (sTF), P13726

Molecule	Concentration by Activity (ng/ml), aPTT based factor assay [1] [ng/mL]	Fraction Active [1] [%]	enhancement of clotting activity against FIX-XTEN without a cleavage site (aPTT based factor assay) [1]	Concentration by Activity (ng/ml), aPTT based factor assay [2] [ng/mL]	Fraction Active [2] [%]	enhancement of clotting activity against FIX-XTEN without a cleavage site (aPTT based factor assay) [2]	Concentration by Activity (ng/ml), aPTT based factor assay [3] [ng/mL]	Fraction Active [3] [%]	enhancement of clotting activity against FIX-XTEN without a cleavage site (aPTT based factor assay) [3]	FVIIa activity by soluble tissue factor (sTF) induced clotting (Stago STA-Clot FVIIa activity assay kit) [4]
FXI protease (activated factor XI, FXIa)	7	30	In all three cases the presence of a FXI cleavage site enhanced the clotting activity by greater than 30-fold	9	34	In all three cases the presence of a FXI cleavage site enhanced the clotting activity by greater than 30-fold	11	40	In all three cases the presence of a FXI cleavage site enhanced the clotting activity by greater than 30-fold	–
B1	–	–	–	–	–	–	–	–	–	an activity equivalent to 112 U/ml of FVIIa activity

Source: patent publication US20160362672
